Data on two molecules can be found in US20190300604A1 (ASCLEPIUMM TAIWAN, published 2019).

For the experiment, the target named is T1, human Desmoglein2 (Dsg2) (human, UniProt Q14126 50-1118).
T1 construct: whole, on cells; also called Dsg2-expressing cells
T1 sequence (looked up): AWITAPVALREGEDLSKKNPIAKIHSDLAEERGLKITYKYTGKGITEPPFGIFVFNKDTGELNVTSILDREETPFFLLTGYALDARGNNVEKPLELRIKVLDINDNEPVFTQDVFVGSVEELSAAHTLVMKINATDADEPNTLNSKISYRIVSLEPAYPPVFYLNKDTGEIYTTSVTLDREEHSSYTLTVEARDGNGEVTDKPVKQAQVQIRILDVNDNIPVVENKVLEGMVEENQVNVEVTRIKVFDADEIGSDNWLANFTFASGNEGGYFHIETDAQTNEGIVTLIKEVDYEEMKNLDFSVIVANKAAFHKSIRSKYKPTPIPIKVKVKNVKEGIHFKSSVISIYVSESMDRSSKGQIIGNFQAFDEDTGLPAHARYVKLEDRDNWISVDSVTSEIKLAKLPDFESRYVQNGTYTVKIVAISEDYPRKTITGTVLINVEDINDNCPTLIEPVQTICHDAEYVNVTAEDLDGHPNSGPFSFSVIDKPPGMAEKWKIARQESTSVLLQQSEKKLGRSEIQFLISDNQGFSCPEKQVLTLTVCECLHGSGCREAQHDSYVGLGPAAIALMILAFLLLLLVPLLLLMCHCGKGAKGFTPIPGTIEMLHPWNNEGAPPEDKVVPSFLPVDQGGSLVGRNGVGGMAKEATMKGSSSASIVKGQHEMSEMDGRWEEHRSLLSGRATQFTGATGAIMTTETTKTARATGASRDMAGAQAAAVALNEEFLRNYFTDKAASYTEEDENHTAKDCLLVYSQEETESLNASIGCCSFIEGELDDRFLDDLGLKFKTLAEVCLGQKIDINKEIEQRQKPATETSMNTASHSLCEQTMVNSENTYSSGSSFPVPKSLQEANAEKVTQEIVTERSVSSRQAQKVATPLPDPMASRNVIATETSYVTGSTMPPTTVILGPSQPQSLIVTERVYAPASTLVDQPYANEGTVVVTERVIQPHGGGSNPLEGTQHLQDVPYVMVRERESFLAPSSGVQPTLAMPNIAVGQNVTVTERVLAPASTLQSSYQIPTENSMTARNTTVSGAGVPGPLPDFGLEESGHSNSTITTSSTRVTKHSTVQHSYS
Put plainly: flow cytometry and Western blotting, Dsg2 knockdown and Dsg2 over-expression cells. A general note: In flow cytometry, cells or beads pass a laser one at a time.

B1: Dsg2 monoclonal antibody 3D4 (antibody, V domains shown)
VH: QIQLVQSGPELKKPGETVKISCKASGYTFTNYGMNWVRQAPGKALKWMVWMNTNTGESIYAEEFKGRFVFSLDTSASTAYLQINNLNNEDTATYFCARYWDTYWGQGTTLTVSS
VL: DIKMTQSPSSMYASLGERVTITCKASQDINSYLSWFQQKPGKSPKTLIYRANRLVDGVPSRFSGSGSGQDFSLTISSLEYEDMGIYYCLQYDEFPYTFGGGTKLEIK
notes: Mouse hybridoma antibody from BALB/c mice, detected with anti-mouse IgG Fc-gamma specific antibody; also called mAb 3D4
As for B1, the binding result is listed as “binds”.

B2: Dsg2 monoclonal antibody 13D3 (antibody, V domains shown)
VH: QVQLQQPGAELVKPGASVKLSCKASGYTFTSYYMYWVKQRPGQGLEWIGGINPNNGGTNFNEKFKSKATLTVDKSSSTAYMQLRSLTSEDSAVYYCIRGSGYGNWGQGTLVTVSA
VL: DIKMTQSPSSMYASLGERVTITCKASQDINGYLSWFQQKPGKSPKTLIYRANRLVDGVPSRFSGSGSGQDYSLTISSLEYEDMGIYYCLQYDEFPYTFGGGTKLEIK
notes: Mouse hybridoma antibody from BALB/c mice, detected with anti-mouse IgG Fc-gamma specific antibody; also called mAb 13D3
For the molecule B2, the binding result is given as “binds”.
